Laboratory results from US20150164984A1, “Colicins for Treating Bacterial Infections” (The University Court of the University of Glasgow, priority 2012, published 2015).

What was measured:
[1] = system: AIEC in the biofilm state; assay: MBEC biofilm assay, viability by XTT; assay type: cell-based, E. coli; settings: for ability to kill AIEC in the biofilm state: 6 additional strains of AIEC; for antimicrobial activity against biofilm-associated cells compared with ampicillin, metronidazole and rifaximin: all isolates; for relative effectiveness among colicins in killing AIEC in the biofilm state: multiple AIEC strains
Text: The clinically relevant state for AI E. coli in the infected gut mucosa is the biofilm state in which bacteria show enhanced tolerance to antibiotics. We therefore tested the ability of colicins to kill AI E. coli in the biofilm state using the MBEC Physiology and Genetics Assay (Innovotech). In this assay, biofilm growth occurs on 96 identical pegs protruding from the lid of a 96-well microtitre plate.
To determine the cytotoxicity of colicins against LF82 biofilms we compared the % cell survival of AIEC in biofilms treated with colicins with those exposed to antibiotics which are frequently prescribed in the treatment of Crohn's disease (FIG. 1). Biofilms were formed on the MBEC™ 96-peg plate platform for 24 h, then challenged for 1 h with 150 μl dilutions of the antibiotics (ampicillin, ciprofloxacin, metronidazole and rifaximin) and colicins (E1, E3, E9 and D) in sterile PBS in the concentration range 0.002 μg/ml-200 μg/ml. All dilutions of antimicrobials were done in triplicate and control antimicrobial-free biofilms were treated with 150 μl of sterile PBS. Following treatment, the viability of biofilm-associated cells was tested using the metabolic dye XTT. The XTT salt changes colour when it is metabolised by viable cells. This colour change can be compared to untreated antimicrobial-free biofilms, giving an indication of the percentage survival in biofilms exposed to the antimicrobials.
We further tested the ability of colicins E1 (a pore-forming colicin) E3 (a rRNase), E9 (a DNase), D (a tRNase) and IA (a pore-forming colicin) to kill 6 additional strains of AIEC in the biofilm state.

[2] = system: adherent invasive E. coli isolates (AIEC) 95, 419, 615 and LF82; assay: spot test of purified colicin on a growing lawn of cells (zones of inhibition); assay type: cell-based; settings: isolates 95, 419, 615 and LF82; 2 μl drop of 0.2 mg/ml colicin, 18 h
Method: Briefly, 25 μl of a log phase bacterial culture (OD600=0.6) was added to 5 ml of molten 0.8% agarose and poured on top of an LB agar plate. A 2 μl drop of each colicin (0.2 mg/ml) was spotted onto the overlay plate. The plates were incubated for 18 h and examined for zones of inhibition. All E. coli isolates tested were sensitive to the cytotoxic activity of the four colicin proteins, as indicated by the presence of clear zones representing cell killing (not shown).

[3] = system: intracellular E. coli LF82 in infected murine macrophages (J774); assay: macrophage model of AIEC infection, colony counts of intracellular bacteria; assay type: cell-based; settings: for killing of intracellular LF82 in infected macrophages: infected macrophages treated for 4 and 24 hours, FIG. 4
Method: AI E. coli are able to infect and replicate within macrophages and epithelial cells. To determine if colicin E1 is able to kill intracellular bacteria raw murine macrophages (J774) were infected with AI E. coli LF82 and treated with colicin E1 (FIG. 3).
Raw murine macrophages (J774) were grown in 24-well tissue culture plates in RPMI tissue culture media (containing 3% fetal calf serum, 1% […], 1% pen/strep) at 37° C. in 5% CO2 until the cells reached 70-80% confluency. The macrophages were then infected with E. coli LF82 at a multiplicity of infection of 50 (MOI 50). After 2 h of infection, the macrophages were exposed to the antibiotic gentamicin (100 μg/ml) to kill any bacteria outside the macrophage which hadn't successfully invaded the cell. The LF82-infected macrophages were then treated with colicin E1 (10, 0.1, 0.001 μg/ml) for 3 h at 37° C. The macrophages were then scraped from the surface of the plate, lysed with Triton X and the intra-cellular bacteria were plated on LB agar containing 50 μg/ml ampicillin for selection of LF82. The plates were incubated overnight at 37° C. and colony counts were performed.
Experiments were performed as described for colicin E1 except that infected macrophages were treated with colicin for 4 and 24 hours.

[4] = target: outer membrane receptor BtuB (Escherichia coli, UniProt P06129); settings: read-out: affinity for outer membrane receptor BtuB; Housden et al., 2005; cited from earlier work
Sequence of outer membrane receptor BtuB (P06129 21-614): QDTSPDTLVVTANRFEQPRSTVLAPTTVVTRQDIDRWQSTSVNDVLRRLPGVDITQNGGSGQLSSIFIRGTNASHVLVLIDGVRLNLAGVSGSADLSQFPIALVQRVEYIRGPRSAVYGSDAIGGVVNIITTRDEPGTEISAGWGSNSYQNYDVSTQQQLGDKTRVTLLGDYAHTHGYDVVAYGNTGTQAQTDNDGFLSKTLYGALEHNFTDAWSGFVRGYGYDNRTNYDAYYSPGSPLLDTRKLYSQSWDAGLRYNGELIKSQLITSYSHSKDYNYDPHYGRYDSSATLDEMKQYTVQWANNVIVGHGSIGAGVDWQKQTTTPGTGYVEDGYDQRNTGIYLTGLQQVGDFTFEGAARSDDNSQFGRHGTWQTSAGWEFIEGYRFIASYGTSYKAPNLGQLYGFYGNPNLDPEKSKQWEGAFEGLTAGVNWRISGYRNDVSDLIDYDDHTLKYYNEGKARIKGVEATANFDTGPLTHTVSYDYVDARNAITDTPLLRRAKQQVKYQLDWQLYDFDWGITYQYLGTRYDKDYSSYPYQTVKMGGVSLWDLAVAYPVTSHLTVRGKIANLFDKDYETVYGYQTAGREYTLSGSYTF

Molecule | ability to kill AIEC in the biofilm state [1] | sensitivity of AIEC isolates in spot tests [2] | killing of intracellular LF82 in infected macrophages [3] | antimicrobial activity against biofilm-associated cells compared with ampicillin, metronidazole and rifaximin [1] | relative effectiveness among colicins in killing AIEC in the biofilm state [1] | Kd [4] [nM] | reduction in the number of bacteria recovered from the macrophages ([3]; 10 μg/ml, 3 h, LF82-infected J774 macrophages) [%]
Colicin Ia (protein, listed as Escherichia coli) MSDPVRITNPGAESLGYDSDGHEIMAVDIYVNPPRVDVFHGTPPAWSSFGNKTIWGGNEWVDDSPTRSDIEKRDKEITAYKNTLSAQQKENENKRTEAGKRLSAAIAAREKDENTLKTLRAGNADAADITRQEFRLLQAELREYGFRTEIAGYDALRLHTESRMLFADADSLRISPREARSLIEQAEKRQKDAQNADKKAADMLAEYERRKGILDTRLSELEKNGGAALAVLDAQQARLLGQQTRNDRAISEARNKLSSVTESLNTARNALTRAEQQLTQQKNTPDGKTIVSPEKFPGRSSTNHSIVVSGDPRFAGTIKITTSAVIDNRANLNYLLSHSGLDYKRNILNDRNPVVTEDVEGDKKIYNAEVAEWDKLRQRLLDARNKITSAESAVNSARNNLSARTNEQKHANDALNALLKEKENIRNQLSGINQKIAEEKRKQDELKATKDAINFTTEFLKSVSEKYGAKAEQLAREMAGQAKGKKIRNVEEALKTYEKYRADINKKINAKDRAAIAAALESVKLSDISSNLNRFSRGLGYAGKFTSLADWITEFGKAVRTENWRPLFVKTETIIAGNAATALVALVFSILTGSALGIIGYGLLMAVTGALIDESLVEKANKFWGI | good killing activity | – | – | – | – | – | –
Colicin D (protein, listed as Escherichia coli) MSDYEGSGPTEGIDYGHSMVVWPSTGLISGGDVKPGGSSGIAPSMPPGWGDYSPQGIALVQSVLFPGIIRRIILDKELEEGDWSGWSVSVHSPWGNEKVSAARTVLENGLRGGLPEPSRPAAVSFARLEPASGNEQKIIRLMVTQQLEQVTDIPASQLPAAGNNVPVKYRLMDLMQNGTQYMAIIGGIPMTVPVVDAVPVPDRSRPGTNIKDVYSAPVSPNLPDLVLSVGQMNTPVLSNPEIQEEGVIAETGNYVEAGYTMSSNNHDVIVRFPEGSDVSPLYISTVEILDSNGLSQRQEAENKAKDDFRVKKEEAVARAEAEKAKAELFSKAGVNQPPVYTQEMMERANSVMNEQGALVLNNTASSVQLAMTGTGVWTAAGDIAGNISKFFSNALEKVTIPEVSPLLMRISLGALWFHSEEAGAGSDIVPGRNLEAMFSLSAQMLAGQGVVIEPGATSVNLPVRGQLINSNGQLALDLLKTGNESIPAAVPVLNAVRDTATGLDKITLPAVVGAPSRTILVNPVPQPSVPTDTGNHQPVPVTPVHTGTEVKSVEMPVTTITPVSDVGGLRDFIYWRPDAAGTGVEAVYVMLNDPLDSGRFSRKQLDKKYKHAGDFGISDTKKNRETLTKFRDAIEEHLSDKDTVEKGTYRREKGSKVYFNPNTMNVVIIKSNGEFLSGWKINPDADNGRIYLETGEL | good killing activity | sensitive | – | – | – | – | –
Colicin E9 (protein, listed as Escherichia coli) MSGGDGRGHNTGAHSTSGNINGGPTGIGVSGGASDGSGWSSENNPWGGGSGSGIHWGGGSGRGNGGGNGNSGGGSGTGGNLSAVAAPVAFGFPALSTPGAGGLAVSISASELSAAIAGIIAKLKKVNLKFTPFGVVLSSLIPSEIAKDDPNMMSKIVTSLPADDITESPVSSLPLDKATVNVNVRVVDDVKDERQNISVVSGVPMSVPVVDAKPTERPGVFTASIPGAPVLNISVNDSTPAVQTLSPGVTNNTDKDVRPAGFTQGGNTRDAVIRFPKDSGHNAVYVSVSDVLSPDQVKQRQDEENRRQQEWDATHPVEAAERNYERARAELNQANEDVARNQERQAKAVQVYNSRKSELDAANKTLADAIAEIKQFNRFAHDPMAGGHRMWQMAGLKAQRAQTDVNNKQAAFDAAAKEKSDADAALSAAQERRKQKENKEKDAKDKLDKESKRNKPGKATGKGKPVGDKWLDDAGKDSGAPIPDRIADKLRDKEFKSFDDFRKAVWEEVSKDPELSKNLNPSNKSSVSKGYSPFTPKNQQVGGRKVYELHHDKPISQGGEVYDMDNIRVTTPKRHIDIHRGK | good killing activity | sensitive | able to kill intracellular LF82 | superior antimicrobial activity | most effective | 2 | –
colicin E9 H575A: catalytically inactive colicin E9 variant (protein, UniProt P09883 1-582, looked up, variant H575A) Colicin-E9: MSGGDGRGHNTGAHSTSGNINGGPTGIGVSGGASDGSGWSSENNPWGGGSGSGIHWGGGSGRGNGGGNGNSGGGSGTGGNLSAVAAPVAFGFPALSTPGAGGLAVSISASELSAAIAGIIAKLKKVNLKFTPFGVVLSSLIPSEIAKDDPNMMSKIVTSLPADDITESPVSSLPLDKATVNVNVRVVDDVKDERQNISVVSGVPMSVPVVDAKPTERPGVFTASIPGAPVLNISVNDSTPAVQTLSPGVTNNTDKDVRPAGFTQGGNTRDAVIRFPKDSGHNAVYVSVSDVLSPDQVKQRQDEENRRQQEWDATHPVEAAERNYERARAELNQANEDVARNQERQAKAVQVYNSRKSELDAANKTLADAIAEIKQFNRFAHDPMAGGHRMWQMAGLKAQRAQTDVNNKQAAFDAAAKEKSDADAALSAAQERRKQKENKEKDAKDKLDKESKRNKPGKATGKGKPVGDKWLDDAGKDSGAPIPDRIADKLRDKEFKSFDDFRKAVWEEVSKDPELSKNLNPSNKSSVSKGYSPFTPKNQQVGGRKVYELHHDKPISQGGEVYDMDNIRVTTPKRAIDIHRGK | – | – | no killing | – | – | – | –
Colicin E1 (protein, listed as Escherichia coli) METAVAYYKDGVPYDDKGQVIITLLNGTPDGSGSGGGGGKGGSKSESSAAIHATAKWSTAQLKKTQAEQAARAKAAAEAQAKAKANRDALTQRLKDIVNEALRHNASRTPSATELAHANNAAMQAEDERLRLAKAEEKARKEAEAAEKAFQEAEQRRKEIEREKAETERQLKLAEAEEKRLAALSEEAKAVEIAQKKLSAAQSEVVKMDGEIKTLNSRLSSSIHARDAEMKTLAGKRNELAQASAKYKELDELVKKLSPRANDPLQNRPFFEATRRRVGAGKIREEKQKQVTASETRINRINADITQIQKAISQVSNNRNAGIARVHEAEENLKKAQNNLLNSQIKDAVDATVSFYQTLTEKYGEKYSKMAQELADKSKGKKIGNVNEALAAFEKYKDVLNKKFSKADRDAIFNALASVKYDDWAKHLDQFAKYLKITGHVSFGYDVVSDILKIKDTGDWKPLFLTLEKKAADAGVSYVVALLFSLLAGTTLGIWGIAIVTGILCSYIDKNKLNTINEVLGI | good killing activity | sensitive | – | superior antimicrobial activity | most effective | – | ~80
Colicin E3 (protein, listed as Escherichia coli) MSGGDGRGHNTGAHSTSGNINGGPTGLGVGGGASDGSGWSSENNPWGGGSGSGIHWGGGSGHGNGGGNGNSGGGSGTGGNLSAVAAPVAFGFPALSTPGAGGLAVSISAGALSAAIADIMAALKGPFKFGLWGVALYGVLPSQIAKDDPNMMSKIVTSLPADDITESPVSSLPLDKATVNVNVRVVDDVKDERQNISVVSGVPMSVPVVDAKPTERPGVFTASIPGAPVLNISVNNSTPAVQTLSPGVTNNTDKDVRPAGFTQGGNTRDAVIRFPKDSGHNAVYVSVSDVLSPDQVKQRQDEENRRQQEWDATHPVEAAERNYERARAELNQANEDVARNQERQAKAVQVYNSRKSELDAANKTLADAIAEIKQFNRFAHDPMAGGHRMWQMAGLKAQRAQTDVNNKQAAFDAAAKEKSDADAALSSAMESRKKKEDKKRSAENNLNDEKNKPRKGFKDYGHDYHPAPKTENIKGLGDLKPGIPKTPKQNGGGKRKRWTGDKGRKIYEWDSQHGELEGYRASDGQHLGSFDPKTGNQLKGPDPKRNIKKYL | good killing activity | sensitive | – | – | – | – | –
